B1: scFv; the commonest letter at each place (parent)
chain 1: EVKLDETGGGLVQPGRPMKLSCVASGFTFSDYWMNWVRQSPEKGLEWVAQIRNKPYNYETYYSDSVKGRFTISRDDSKSSVYLQMNNLRVEDMGIYYCTGSYYGMDYWGQGTSVTVS
chain 2: DVVMTQTPLSLPVSLGDQASISCRSSQSLVHSNGNTYLRWYLQKPGQSPKVLIYKVSNRFSGVPDRFSGSGSGTDFTLKISRVEAEDLGVYFCSQSTHVPWTFGGGTKLEIK

In the data set “fluorescein” the parent is B1. The experiment in a line: Kd (Tite-Seq). The note with it: with fluorescein; format: scFv 4-4-20, heavy + light.
Variants of B1 are the subject of data set [1]. Kind of data set: yeast surface expression (ratio to wild type); higher = more expressed. Conditions: format: scFv 4-4-20, heavy + light.

Some results are limits rather than exact numbers.

Take chain 1 Y102E W108I: in the data set with fluorescein, the Kd (commonly the free concentration of one partner at which half of the binding sites on the other are occupied at equilibrium, for simple one-to-one binding) stood at 0.000846 µM. For the same variant, the yeast surface expression in data set [1] turned out to be 0.763.
Turning to chain 1 Y32W N35T, in the data set with fluorescein, the Kd was at least 10 µM. The yeast surface expression in data set [1] amounted to 0.786.
The corresponding values for chain 1 Y102E Y107A are at least 10 µM and 0.904.
Regarding chain 1 Y32P W36K, in the data set with fluorescein, the Kd was at least 10 µM. Also, the yeast surface expression in data set [1] was 0.563.
The corresponding values for chain 1 Y32P W36C are at least 10 µM and 0.649.
In the same order, the values of chain 1 Y102C G104D are at least 10 µM and 0.919.
In the same order, the values of chain 1 Y102C G104H are at least 10 µM and 0.609.
On to chain 1 Y32P M34N, for which the Kd with fluorescein was at least 10 µM. In data set [1], the yeast surface expression was 0.503.
In the same order, the values of chain 1 Y32C M34P are at least 10 µM and 0.562.
Take chain 1 Y32C M34F: the Kd with fluorescein was at least 10 µM. Further, the yeast surface expression in data set [1] is 0.872.
In the same order, the values of chain 1 Y32C M34K are at least 10 µM and 1.04.
In the same order, the values of chain 1 Y32C M34T are at least 10 µM and 0.664.
The corresponding values for chain 1 Y32C M34Y are at least 10 µM and 0.843.
Regarding chain 1 Y102A G109K, in the data set with fluorescein, the Kd was at least 10 µM. Besides, the yeast surface expression in data set [1] came out at 0.279.
The corresponding values for chain 1 Y102A Y103K G109C are at least 10 µM and 0.237.
The corresponding values for chain 1 Y102C W108I are at most 0.000316 µM and 0.7.
The corresponding values for chain 1 Y32A W36N are at least 10 µM and 1.17.
Regarding chain 1 Y32N V37G, the Kd with fluorescein was found to be 0.0113 µM. Further, the yeast surface expression in data set [1] is 2.76.
In the same order, the values of chain 1 Y102F M105R are 0.0146 µM and 1.2.
The corresponding values for chain 1 Y32A W33I M34T are at least 10 µM and 0.444.
The corresponding values for chain 1 Y32W W33Y are at least 10 µM and 0.945.
As to chain 1 Y32W W33P, in the data set with fluorescein, the Kd was at least 10 µM. Also, the yeast surface expression in data set [1] was 0.825.
The corresponding values for chain 1 Y32W W33F are at least 10 µM and 0.941.
In the same order, the values of chain 1 Y32W W33Q are at least 10 µM and 0.886.
The corresponding values for chain 1 Y32A M34S are at least 10 µM and 0.769.
On to chain 1 Y32A M34V, for which the Kd with fluorescein was 0.0434 µM. In addition, the yeast surface expression in data set [1] came to 0.941.
In the same order, the values of chain 1 Y32N M34V are at least 10 µM and 0.683.
As for chain 1 Y32N M34G, the equilibrium dissociation constant (Kd) in the data set with fluorescein is at least 10 µM. Moreover, the yeast surface expression in data set [1] amounted to 0.608.
For chain 1 Y32N M34E, the Kd with fluorescein is 0.021 µM.
Consider chain 1 Y32S N35E V37Q, for which the Kd with fluorescein is at least 10 µM. The yeast surface expression in data set [1] stood at 0.677.
In the same order, the values of chain 1 W108P G109A are 3.2 µM and 0.41.
In the same order, the values of chain 1 W108P G109N are at least 10 µM and 0.473.
In the same order, the values of chain 1 Y32H W36F are 0.676 µM and 0.839.
Turning to chain 1 Y102C G109R, the Kd with fluorescein was at least 10 µM. Also, in data set [1], the yeast surface expression was 0.304.
The corresponding values for chain 1 Y102C G109A are 2.47 µM and 0.619.
In the same order, the values of chain 1 Y32Q W36V are at least 10 µM and 0.479.
In the case of chain 1 Y32S N35H, in the data set with fluorescein, the Kd is at least 10 µM. Moreover, the yeast surface expression in data set [1] turned out to be 0.89.
In the same order, the values of chain 1 Y32G W33A are at least 10 µM and 0.708.
The corresponding values for chain 1 Y32G W33N are at least 10 µM and 0.799.
In the same order, the values of chain 1 Y32K V37S are at least 10 µM and 0.852.
Take chain 1 Y32K V37R: the Kd with fluorescein was at least 10 µM. Besides, the yeast surface expression in data set [1] was 1.18.
The corresponding values for chain 1 Y32K V37T are at least 10 µM and 0.623.
The corresponding values for chain 1 Y32V W33N are at least 10 µM and 1.16.
The corresponding values for chain 1 Y32R W36V are at least 10 µM and 0.547.
chain 1 Y32R W36Y: the Kd with fluorescein was found to be 7.72 µM. Also, the yeast surface expression in data set [1] was 0.635.
In the same order, the values of chain 1 Y102G D106Y are at least 10 µM and 0.496.
The corresponding values for chain 1 Y32P W33I are at least 10 µM and 0.908.
In the same order, the values of chain 1 Y32P W33C are 2.47 µM and 0.832.
Take chain 1 Y32V V37I: the Kd with fluorescein is at least 10 µM. Also, the yeast surface expression in data set [1] is 1.03.
The corresponding values for chain 1 Y32V V37L are at least 10 µM and 0.677.
In the same order, the values of chain 1 Y32V V37K are 7.72 µM and 0.425.
In the same order, the values of chain 1 Y32G W36H are at least 10 µM and 0.209.
Turning to chain 1 Y102F G109H, the Kd with fluorescein is at least 10 µM. In data set [1], the yeast surface expression came out at 0.186.
The corresponding values for chain 1 Y102F G109N are at least 10 µM and 0.27.
The corresponding values for chain 1 Y32K M34F W36H are at least 10 µM and 0.381.
The corresponding values for chain 1 Y32R W33M are at least 10 µM and 0.809.
Turning to chain 1 Y32R W33I, the Kd with fluorescein was at least 10 µM. Further, the yeast surface expression in data set [1] worked out at 0.763.
In the same order, the values of chain 1 Y32R M34W V37M are at least 10 µM and 0.728.

Values taken from the FLAb antibody collection (doi:10.7554/elife.23156).
